What was measured:
grb2_human GRB2 = grb2_human GRB2 (UniProt P62993)
igf1r_human IGF1R [1] = molecular target: igf1r_human IGF1R (UniProt P08069)
erbb4_human ERBB4 = erbb4_human ERBB4 (UniProt Q15303)
fgfr2_human FGFR2 = fgfr2_human FGFR2 (UniProt P21802)
fgfr4_human FGFR4 = fgfr4_human FGFR4 (UniProt P22455)
vgfr2_human KDR = vgfr2_human KDR (UniProt P35968)
igf1r_human IGF1R [2] = molecular target: igf1r_human IGF1R (UniProt P08069); remark: listed apart in the source

Sequence of Tyrosine-protein phosphatase non-receptor type 6 (Homo sapiens), P29350 D419A;C453S (P29350 whole entry D419A/C453S): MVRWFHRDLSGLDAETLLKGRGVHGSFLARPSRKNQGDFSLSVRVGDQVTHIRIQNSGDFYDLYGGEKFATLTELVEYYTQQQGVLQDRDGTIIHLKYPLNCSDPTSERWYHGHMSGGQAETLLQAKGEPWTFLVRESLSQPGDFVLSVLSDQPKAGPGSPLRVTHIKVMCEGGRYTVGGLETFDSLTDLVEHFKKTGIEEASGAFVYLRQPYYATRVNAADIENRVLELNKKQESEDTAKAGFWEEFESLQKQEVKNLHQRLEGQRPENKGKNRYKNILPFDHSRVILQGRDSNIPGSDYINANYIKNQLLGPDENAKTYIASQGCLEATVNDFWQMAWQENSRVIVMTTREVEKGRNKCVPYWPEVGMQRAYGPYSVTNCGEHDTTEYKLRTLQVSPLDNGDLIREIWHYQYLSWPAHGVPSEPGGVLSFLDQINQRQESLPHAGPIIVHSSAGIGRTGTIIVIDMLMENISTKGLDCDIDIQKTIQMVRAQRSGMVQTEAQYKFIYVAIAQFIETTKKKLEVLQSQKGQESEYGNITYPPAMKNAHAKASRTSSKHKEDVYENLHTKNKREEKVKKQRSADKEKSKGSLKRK
Sequence of Tyrosine-protein phosphatase non-receptor type 6 (Homo sapiens), P29350 C453S (P29350 whole entry C453S): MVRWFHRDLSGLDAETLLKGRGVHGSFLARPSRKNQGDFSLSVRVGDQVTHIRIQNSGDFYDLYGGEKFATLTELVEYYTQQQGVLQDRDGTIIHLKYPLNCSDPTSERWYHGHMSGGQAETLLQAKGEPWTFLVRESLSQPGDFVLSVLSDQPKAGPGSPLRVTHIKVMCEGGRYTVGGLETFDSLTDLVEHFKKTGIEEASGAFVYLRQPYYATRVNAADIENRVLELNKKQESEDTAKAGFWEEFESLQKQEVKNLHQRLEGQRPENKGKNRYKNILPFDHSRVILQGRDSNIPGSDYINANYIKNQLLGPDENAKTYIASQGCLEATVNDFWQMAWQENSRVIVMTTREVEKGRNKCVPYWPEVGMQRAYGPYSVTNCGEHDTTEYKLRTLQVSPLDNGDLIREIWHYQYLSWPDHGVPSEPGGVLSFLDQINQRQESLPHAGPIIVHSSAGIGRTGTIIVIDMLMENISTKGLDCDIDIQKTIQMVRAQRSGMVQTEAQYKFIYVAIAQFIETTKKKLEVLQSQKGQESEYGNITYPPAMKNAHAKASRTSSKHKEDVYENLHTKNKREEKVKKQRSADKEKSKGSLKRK
Sequence of igf1r_human IGF1R (P08069 whole entry, looked up): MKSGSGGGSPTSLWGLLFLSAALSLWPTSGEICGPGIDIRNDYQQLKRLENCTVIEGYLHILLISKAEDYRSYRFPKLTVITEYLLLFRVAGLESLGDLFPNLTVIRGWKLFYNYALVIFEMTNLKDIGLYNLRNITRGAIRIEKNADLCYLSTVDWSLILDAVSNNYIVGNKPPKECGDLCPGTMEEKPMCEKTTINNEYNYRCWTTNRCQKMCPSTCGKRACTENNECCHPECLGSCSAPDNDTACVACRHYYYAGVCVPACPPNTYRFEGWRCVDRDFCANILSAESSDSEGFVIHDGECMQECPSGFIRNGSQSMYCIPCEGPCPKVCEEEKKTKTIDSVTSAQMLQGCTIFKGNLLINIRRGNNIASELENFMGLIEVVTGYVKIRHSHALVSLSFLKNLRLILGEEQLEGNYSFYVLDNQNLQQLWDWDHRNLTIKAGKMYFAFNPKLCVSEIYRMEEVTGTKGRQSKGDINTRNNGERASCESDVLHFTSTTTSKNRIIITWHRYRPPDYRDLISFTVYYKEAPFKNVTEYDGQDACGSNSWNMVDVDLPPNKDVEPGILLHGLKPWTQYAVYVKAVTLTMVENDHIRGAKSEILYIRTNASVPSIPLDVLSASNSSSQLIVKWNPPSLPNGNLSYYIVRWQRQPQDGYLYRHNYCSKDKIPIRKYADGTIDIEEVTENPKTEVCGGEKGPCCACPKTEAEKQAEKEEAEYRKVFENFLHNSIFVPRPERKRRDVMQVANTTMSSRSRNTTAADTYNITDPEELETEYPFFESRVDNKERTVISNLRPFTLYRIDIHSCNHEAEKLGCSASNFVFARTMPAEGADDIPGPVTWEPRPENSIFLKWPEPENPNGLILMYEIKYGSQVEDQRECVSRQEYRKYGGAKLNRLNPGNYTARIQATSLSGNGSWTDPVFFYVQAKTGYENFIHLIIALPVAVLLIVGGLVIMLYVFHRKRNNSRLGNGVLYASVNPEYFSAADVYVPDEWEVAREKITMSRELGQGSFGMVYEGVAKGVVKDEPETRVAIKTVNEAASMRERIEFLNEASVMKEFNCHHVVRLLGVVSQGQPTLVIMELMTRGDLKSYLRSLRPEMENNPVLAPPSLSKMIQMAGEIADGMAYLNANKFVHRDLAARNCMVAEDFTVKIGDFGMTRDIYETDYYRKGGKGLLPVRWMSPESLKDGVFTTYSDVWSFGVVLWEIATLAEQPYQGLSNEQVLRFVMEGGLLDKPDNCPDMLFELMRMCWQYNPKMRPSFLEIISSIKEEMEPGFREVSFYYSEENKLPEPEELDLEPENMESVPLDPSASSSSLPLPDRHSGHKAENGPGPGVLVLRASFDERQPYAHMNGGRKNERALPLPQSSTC
Sequence of vgfr2_human KDR (P35968 whole entry): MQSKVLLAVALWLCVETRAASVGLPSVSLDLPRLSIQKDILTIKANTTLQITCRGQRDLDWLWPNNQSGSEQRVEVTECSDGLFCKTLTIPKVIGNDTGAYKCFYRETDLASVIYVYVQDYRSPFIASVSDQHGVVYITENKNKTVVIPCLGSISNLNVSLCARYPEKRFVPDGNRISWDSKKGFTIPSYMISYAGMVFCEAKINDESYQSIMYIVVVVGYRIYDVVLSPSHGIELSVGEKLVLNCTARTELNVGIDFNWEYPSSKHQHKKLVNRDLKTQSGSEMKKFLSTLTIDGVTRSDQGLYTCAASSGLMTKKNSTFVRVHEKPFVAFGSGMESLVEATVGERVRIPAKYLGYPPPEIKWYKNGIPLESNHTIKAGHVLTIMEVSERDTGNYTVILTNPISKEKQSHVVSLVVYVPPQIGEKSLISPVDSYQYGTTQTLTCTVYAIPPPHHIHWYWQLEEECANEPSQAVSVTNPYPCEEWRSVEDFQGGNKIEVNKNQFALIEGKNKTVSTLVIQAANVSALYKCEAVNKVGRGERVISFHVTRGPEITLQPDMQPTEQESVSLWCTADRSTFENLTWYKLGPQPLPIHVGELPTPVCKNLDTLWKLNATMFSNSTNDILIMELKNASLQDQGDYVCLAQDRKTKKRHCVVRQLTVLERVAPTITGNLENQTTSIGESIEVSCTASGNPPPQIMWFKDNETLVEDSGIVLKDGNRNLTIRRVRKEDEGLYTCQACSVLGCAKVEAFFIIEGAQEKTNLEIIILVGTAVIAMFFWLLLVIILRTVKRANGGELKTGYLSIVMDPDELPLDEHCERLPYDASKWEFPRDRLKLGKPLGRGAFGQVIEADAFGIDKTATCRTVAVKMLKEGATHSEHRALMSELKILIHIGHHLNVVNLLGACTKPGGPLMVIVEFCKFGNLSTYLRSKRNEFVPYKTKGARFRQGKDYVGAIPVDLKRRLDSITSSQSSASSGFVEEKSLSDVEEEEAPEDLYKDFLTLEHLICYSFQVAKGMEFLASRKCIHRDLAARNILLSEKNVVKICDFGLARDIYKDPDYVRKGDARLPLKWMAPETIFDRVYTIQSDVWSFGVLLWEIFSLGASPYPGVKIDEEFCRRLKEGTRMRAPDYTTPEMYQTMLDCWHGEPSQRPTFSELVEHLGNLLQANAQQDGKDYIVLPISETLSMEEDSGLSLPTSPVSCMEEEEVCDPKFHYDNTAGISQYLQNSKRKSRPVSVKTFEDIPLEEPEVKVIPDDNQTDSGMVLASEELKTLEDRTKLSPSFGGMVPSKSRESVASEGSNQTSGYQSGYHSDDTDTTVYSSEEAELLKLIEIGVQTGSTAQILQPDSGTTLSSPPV
Sequence of fgfr4_human FGFR4 (P22455 whole entry, looked up): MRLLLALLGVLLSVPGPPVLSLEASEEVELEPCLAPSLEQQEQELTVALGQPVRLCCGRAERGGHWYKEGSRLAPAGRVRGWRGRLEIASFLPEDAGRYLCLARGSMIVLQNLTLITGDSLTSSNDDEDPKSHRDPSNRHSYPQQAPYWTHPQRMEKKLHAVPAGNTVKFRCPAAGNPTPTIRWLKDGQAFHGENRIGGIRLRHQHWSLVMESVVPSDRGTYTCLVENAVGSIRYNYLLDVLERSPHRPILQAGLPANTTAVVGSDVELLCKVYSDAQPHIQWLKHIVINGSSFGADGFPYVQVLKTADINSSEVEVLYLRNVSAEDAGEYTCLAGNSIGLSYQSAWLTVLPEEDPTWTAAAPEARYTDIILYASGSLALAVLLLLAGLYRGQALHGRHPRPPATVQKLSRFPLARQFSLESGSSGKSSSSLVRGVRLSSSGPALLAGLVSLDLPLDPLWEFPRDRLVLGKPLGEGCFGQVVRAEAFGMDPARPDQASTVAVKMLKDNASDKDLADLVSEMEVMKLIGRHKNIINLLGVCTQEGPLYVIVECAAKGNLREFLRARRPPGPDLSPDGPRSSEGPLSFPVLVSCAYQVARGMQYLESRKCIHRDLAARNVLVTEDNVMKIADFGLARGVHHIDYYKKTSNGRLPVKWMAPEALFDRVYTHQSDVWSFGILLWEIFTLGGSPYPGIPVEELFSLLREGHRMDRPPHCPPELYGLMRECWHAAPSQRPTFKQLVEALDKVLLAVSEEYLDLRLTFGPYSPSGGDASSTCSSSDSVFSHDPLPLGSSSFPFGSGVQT

effect of a mutation on the interaction (grb2_human GRB2) | effect of a mutation on the interaction (igf1r_human IGF1R [1]) | effect of a mutation on the interaction (erbb4_human ERBB4) | effect of a mutation on the interaction (fgfr2_human FGFR2) | effect of a mutation on the interaction (fgfr4_human FGFR4) | effect of a mutation on the interaction (vgfr2_human KDR) | effect of a mutation on the interaction (igf1r_human IGF1R [2]) | Substance
decreasing interaction | – | – | – | – | – | – | Receptor-type tyrosine-protein phosphatase alpha (Homo sapiens) (from UniProt P18433) Y798F
– | decreasing interaction | with no effect | with no effect | with no effect | with no effect | – | Tyrosine-protein phosphatase non-receptor type 6 (Homo sapiens), P29350 C453S
– | decreasing interaction | with no effect | with no effect | with no effect | with no effect | with no effect | Tyrosine-protein phosphatase non-receptor type 6 (Homo sapiens), P29350 D419A;C453S
